Source: patent US20230192860A1 (Bristol-Myers Squibb, published 2023)
Blank lines part the entries; values can stand above or below the binder they belong to.

What was measured:
[1] = target: T1, human VISTA on cells (293T cells ectopically expressing full-length human VISTA); AML3 cells and human … (human, UniProt Q9H7M9 33-311); experiment: cell-based or functional assay
T1 sequence: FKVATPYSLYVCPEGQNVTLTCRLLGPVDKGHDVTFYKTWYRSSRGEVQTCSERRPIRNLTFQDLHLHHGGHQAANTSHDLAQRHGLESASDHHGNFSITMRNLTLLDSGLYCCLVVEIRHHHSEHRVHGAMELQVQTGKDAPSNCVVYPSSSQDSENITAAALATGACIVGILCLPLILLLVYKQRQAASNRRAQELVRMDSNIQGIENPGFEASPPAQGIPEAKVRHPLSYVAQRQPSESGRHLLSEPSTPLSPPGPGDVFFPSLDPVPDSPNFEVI

[2] = target: T2, monovalent hVISTA-ECD (amino acids 32-193 of SEQ ID NO: 1 with a 7xHis tail) (human, UniProt Q9H7M9 33-193); experiment: SPR 37C, Ab on Protein A, hVISTA-ECD 50-5 nM, pH 7.4, average
T2 construct: analyte of the SPR assays; also called huVISTA-His; human VISTA-ECD
Experimental: (§1) Binding of several preparations of each of the ‘029 progeny clones and of the parent ‘029 antibodies, formatted as IgG1.3 antibodies, to human VISTA at pH 6.0 and 7.4 was measured by Surface plasmon resonance (SPR). SPR analysis was performed to measure koff and KD binding affinity measurements for VISTA Abs at acidic and neutral pHs using a Biacore® T100 instrument (GE Healthcare). […] Antibodies were diluted to 25 nM in PBST pH 7.4, and were captured across active biosensor flow cells at 5 ul/min for 60 seconds. A concentration series of 50 - 5 nM monovalent hVISTA-ECD (SEQ ID NO: 325) was prepared in pH 7.4 and 6.0 running buffers, and was injected over the captured antibodies at 40 ul/min to measure association and dissociation. Two 15 second injections of 10 mM glycine pH 1.5 were used to regenerate the Protein A capture surface between assay cycles. Rate constants ka (kₒₙ) and kd (koff) were derived from reference flow cell and 0 nM blank-subtracted sensorgrams, and were fit to a 1:1 binding model in Biacore® T200 Evaluation Software v.2.0. The affinity constant, KD was calculated as the ratio of rate constants koff/kₒₙ for each VISTA antibody.

[3] = target: T2, monovalent hVISTA-ECD (amino acids …); experiment: SPR, Ab on Protein A, hVISTA 100-7.8 nM, pH 7.4
Experimental: (§2) Further binding kinetic experiments were performed at various pHs on VISTA antibodies described herein by SPR as generally described in Example 9 above. Antibodies were normalized to 50 nM concentration in PBST pH 7.4 and captured on a Protein A CM5 chip (ID 4931) by injecting for 45 seconds at a 5 µL/min flow rate. An 8-point human VISTA titration ([…]) was prepared in PBST at pH 7.4, 6.9, 6.45, and 6.0. Titrations were injected over the captured antibodies for 180 seconds at 30 µL/min. Sensorgrams were fit to a 1:1 binding model in T200 evaluation software and the kinetic constants were reported.

[4] = target: T2, monovalent hVISTA-ECD (amino acids …); experiment: SPR, pH 7.4 over pH 6.0
Experimental: as §2
Each table reports the data at one of the four tested pHs (7.4, 6.9, 6.45, and 6.0, respectively). The 8-point hVISTA titration used in these assays was chosen to provide increased confidence in kinetic values reported at neutral pH conditions. A relatively stringent cutoff for non-binding was applied in this assay. Certain progeny of P1-061029 antibody (P1-068757, ‘759, ‘765, ‘771, and ‘775) show no binding to hVISTA at micromolar concentrations at pH 7.4, while ‘761 and ‘767 show no binding to hVISTA at 100 nM at pH 7.4 but do show binding to hVISTA at micromolar concentrations.

[5] = target: T2, monovalent hVISTA-ECD (amino acids …); experiment: SPR 37C, Ab on Protein A, hVISTA-ECD 50-0.2 nM, pH 6.0
Experimental: (§3) Surface plasmon resonance (SPR) analysis was performed to measure the association rates (defined as ka or kₒₙ, 1/Ms units), dissociation rates (defined as kd or koff, s⁻¹ units) and affinity constants (defined as KD, M units) for VISTA Abs at acidic and physiological pHs using a Biacore® T200 instrument (GE Healthcare). […] Antibodies were diluted to 20 nM in PBST pH 7.4, and were captured across active biosensor flow cells at 5 ul/min for 50 seconds. A concentration series of 50 - 0.2 nM monovalent hVISTA-ECD (SEQ ID NO: 325) was prepared in pH 7.4 and 6.0 running buffers, and was injected over the captured antibodies at 40 ul/min to measure association and dissociation. Two 15 second injections of 10 mM glycine pH 1.5 were used to regenerate the Protein A capture surface between assay cycles. Rate constants kₐ (kₒₙ) and kd (kₒff) were derived from reference flow cell and 0 nM blank-subtracted sensorgrams, and were fit to a 1:1 binding model in Biacore® T200 Evaluation Software v.2.0.

[6] = target: T2, monovalent hVISTA-ECD (amino acids …); experiment: SPR 37C, Ab on Protein A, hVISTA-ECD 50-0.2 nM, column headed pH 7 (running buffer pH 7.4 in the text)
Experimental: as §3

[7] = target: T2, monovalent hVISTA-ECD (amino acids …); experiment: SPR 37C, Ab on Protein A, hVISTA-ECD 50-5 nM, pH 6.0, average
Experimental: as §1

[8] = target: T2, monovalent hVISTA-ECD (amino acids …); experiment: SPR 37C, Ab on Protein A, hVISTA-ECD 50-5 nM, pH 6.0, average; ka printed Too fast, KD ND

B1: VISTA.5 (mAb1) (antibody, V domains shown)
VH: AVQLQESGPGLVRPSQSLSLTCTVTDYSITSDYAWNWIRQFPGSKLEWLGFIGYSGNTNYNPSLESRISITRHTSKNQFFLHLNSMTTEDTATYYCARSLYGGSHWYFDVWGAGTTVTVSS
VL: DIVLTQSPASLAVSLGQRATISCRGSESVEYYGTILMQWYQQKPGQPPKLLIYGASNVESGVPARFSGSGSGTDFSLNIHPVEEDDIAMYFCQQSRKVPWTFGGGTKLEIK
EC50, AML3 viability (Cell Titer Glo) with anti-human IgG secondary antibody-drug conjugate [1]: 0.485 µg/mL

Kd [2]: 8.8 nM | koff [2]: 0.002 s⁻¹ | kon [2]: 230000 M⁻¹ s⁻¹ | Kd [3]: 5.12 nM | koff [3]: 0.00168 s⁻¹ | kon [3]: 329000 M⁻¹ s⁻¹ | 7.4 KD/ 6.0 KD [4]: 8.2 | 7.4 kd/ 6.0 kd [4]: 1.1 | koff [5]: 0.0014 s⁻¹ | koff [6]: 0.0023 s⁻¹ | Kd [7]: 0.54 nM | koff [7]: 0.00095 s⁻¹ | kon [7]: 1.8e+06 M⁻¹ s⁻¹
B2: P1-061015.IgG1.3 (antibody, V domains shown)
VH: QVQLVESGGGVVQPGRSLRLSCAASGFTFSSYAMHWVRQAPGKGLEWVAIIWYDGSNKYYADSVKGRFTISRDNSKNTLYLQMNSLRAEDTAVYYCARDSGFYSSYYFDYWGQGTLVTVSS
VL: EIVLTQSPATLSLSPGERATLSCRASQSVSSSYLAWYQQKPGQAPRLLIYDASNRATGIPARFSGSGSGTDFTLTISSLEPEDFATYYCQQYNSYPYTFGQGTKLEIKR
notes: IgG1.3

koff [8]: 0.047 s⁻¹
B3: P1-068740 (antibody, human IgG1, kappa, V domains shown)
VH: QVQLVESGGGVVQPGRSLRLSCAASGFTFSDYAMHWVRQAPGKGLEWVAIIWYDGSDKDYADSVKGRFTISRDNSKNTLYLQMNSLRAEDTAVYYCARDSGFYDSYYFDDWGQGTLVTVSS
VL: B2 VL
notes: IgG1.3
